Source: patent US20250368745A1 (published 2025)

B1: SA304a (antibody, human IgG1, V domains shown)
VH: QVQLQESGPGLVKPSQTLSLTCTVSGYSITSDYNAHWIRQPPGKGLEWIGYIHYSGSTNYNPSLKSRVTISRDTSKNQFSLKLSSVTAADTAVYYCARNYASIYVNYFDYWGQGTLVTVSS
VL: EIVLTQSPATLSLSPGERATLSCSASSSVSYMYWYQQKPGQAPRPLIYRTSNLASGIPARFSGSGSGTDFTLTISSLEPEDFAVYYCQQYHSYPTFGGGTKVEIK
B2: SA305a (antibody, human IgG1, V domains shown)
VH: QVQLQESGPGLVKPSQTLSLTCTVSGYSITSDYNAHWIRQPPGKGLEWIGYIHYSGSTNYNPSLKSRVTISRDTSKNQFSLKLSSVTAADTAVYYCARNFASIYVNYFDYWGQGTLVTVSS
VL: EIVLTQSPATLSLSPGERATLSCSASSSVSYMYWYQQKPGQAPRPLIYRTSNLASGIPARFSGSGSGTDFTLTISSLEPEDFAVYYCQQYHSYPTFGGGTKVEIK
B3: SA306a (antibody, human IgG1, V domains shown)
VH: QVQLQESGPGLVKPSQTLSLTCTVSGYSITSDYNNHWIRQPPGKGLEWIGYIHYSGSTNYNPSLKSRVTISRDTSKNQFSLKLSSVTAADTAVYYCARNYGSIYVNYFDYWGQGTLVTVSS
VL: EIVLTQSPATLSLSPGERATLSCSASSSVSYMYWYQQKPGQAPRPLIYRTSNLASGIPARFSGSGSGTDFTLTISSLEPEDFAVYYCQQYHSYPTFGGGTKVEIK
B4: SA308a (antibody, human IgG1, V domains shown)
VH: QVQLQESGPGLVKPSQTLSLTCTVSGYSITSDYNAHWIRQPPGKGLEWIGYIHYSGATNYNPSLKSRVTISRDTSKNQFSLKLSSVTAADTAVYYCARNYGSIYVNYFDYWGQGTLVTVSS
VL: EIVLTQSPATLSLSPGERATLSCSASSSVSYMYWYQQKPGQAPRPLIYRTSNLASGIPARFSGSGSGTDFTLTISSLEPEDFAVYYCQQYHSYPTFGGGTKVEIK
B5: SA301a HC-N100bM (antibody, name in Kabat numbering, V domains shown)
VH: QVQLQESGPGLVKPSQTLSLTCTVSGYSITSDYNSHWIRQPPGKGLEWIGYIHYSGSTNYNPSLKSRVTISRDTSKNQFSLKLSSVTAADTAVYYCARNYGSIYVMYFDYWGQGTLVTVSS
VL: EIVLTQSPATLSLSPGERATLSCSASSSVSYMYWYQQKPGQAPRPLIYRTSNLASGIPARFSGSGSGTDFTLTISSLEPEDFAVYYCQQYHSYPTFGGGTKVEIK
notes: IgG1 kappa
B6: SA301a HC-Y53S (antibody, name in Kabat numbering, V domains shown)
VH: QVQLQESGPGLVKPSQTLSLTCTVSGYSITSDYNSHWIRQPPGKGLEWIGYIHSSGSTNYNPSLKSRVTISRDTSKNQFSLKLSSVTAADTAVYYCARNYGSIYVNYFDYWGQGTLVTVSS
VL: EIVLTQSPATLSLSPGERATLSCSASSSVSYMYWYQQKPGQAPRPLIYRTSNLASGIPARFSGSGSGTDFTLTISSLEPEDFAVYYCQQYHSYPTFGGGTKVEIK
notes: IgG1 kappa
B7: SA301a HC-Y53F (antibody, name in Kabat numbering, V domains shown)
VH: QVQLQESGPGLVKPSQTLSLTCTVSGYSITSDYNSHWIRQPPGKGLEWIGYIHFSGSTNYNPSLKSRVTISRDTSKNQFSLKLSSVTAADTAVYYCARNYGSIYVNYFDYWGQGTLVTVSS
VL: EIVLTQSPATLSLSPGERATLSCSASSSVSYMYWYQQKPGQAPRPLIYRTSNLASGIPARFSGSGSGTDFTLTISSLEPEDFAVYYCQQYHSYPTFGGGTKVEIK
notes: IgG1 kappa
B8: SA301a HC-Y53L (antibody, name in Kabat numbering, V domains shown)
VH: QVQLQESGPGLVKPSQTLSLTCTVSGYSITSDYNSHWIRQPPGKGLEWIGYIHLSGSTNYNPSLKSRVTISRDTSKNQFSLKLSSVTAADTAVYYCARNYGSIYVNYFDYWGQGTLVTVSS
VL: EIVLTQSPATLSLSPGERATLSCSASSSVSYMYWYQQKPGQAPRPLIYRTSNLASGIPARFSGSGSGTDFTLTISSLEPEDFAVYYCQQYHSYPTFGGGTKVEIK
notes: IgG1 kappa
B9: SA301a HC-Y53V (antibody, name in Kabat numbering, V domains shown)
VH: QVQLQESGPGLVKPSQTLSLTCTVSGYSITSDYNSHWIRQPPGKGLEWIGYIHVSGSTNYNPSLKSRVTISRDTSKNQFSLKLSSVTAADTAVYYCARNYGSIYVNYFDYWGQGTLVTVSS
VL: EIVLTQSPATLSLSPGERATLSCSASSSVSYMYWYQQKPGQAPRPLIYRTSNLASGIPARFSGSGSGTDFTLTISSLEPEDFAVYYCQQYHSYPTFGGGTKVEIK
notes: IgG1 kappa
B10: SA301a HC-Y53H (antibody, name in Kabat numbering, V domains shown)
VH: QVQLQESGPGLVKPSQTLSLTCTVSGYSITSDYNSHWIRQPPGKGLEWIGYIHHSGSTNYNPSLKSRVTISRDTSKNQFSLKLSSVTAADTAVYYCARNYGSIYVNYFDYWGQGTLVTVSS
VL: EIVLTQSPATLSLSPGERATLSCSASSSVSYMYWYQQKPGQAPRPLIYRTSNLASGIPARFSGSGSGTDFTLTISSLEPEDFAVYYCQQYHSYPTFGGGTKVEIK
notes: IgG1 kappa
B11: SA301a HC-Y53K (antibody, name in Kabat numbering, V domains shown)
VH: QVQLQESGPGLVKPSQTLSLTCTVSGYSITSDYNSHWIRQPPGKGLEWIGYIHKSGSTNYNPSLKSRVTISRDTSKNQFSLKLSSVTAADTAVYYCARNYGSIYVNYFDYWGQGTLVTVSS
VL: EIVLTQSPATLSLSPGERATLSCSASSSVSYMYWYQQKPGQAPRPLIYRTSNLASGIPARFSGSGSGTDFTLTISSLEPEDFAVYYCQQYHSYPTFGGGTKVEIK
notes: IgG1 kappa
B12: SA301a HC-Y53I (antibody, name in Kabat numbering, V domains shown)
VH: QVQLQESGPGLVKPSQTLSLTCTVSGYSITSDYNSHWIRQPPGKGLEWIGYIHISGSTNYNPSLKSRVTISRDTSKNQFSLKLSSVTAADTAVYYCARNYGSIYVNYFDYWGQGTLVTVSS
VL: EIVLTQSPATLSLSPGERATLSCSASSSVSYMYWYQQKPGQAPRPLIYRTSNLASGIPARFSGSGSGTDFTLTISSLEPEDFAVYYCQQYHSYPTFGGGTKVEIK
notes: IgG1 kappa
B13: SA301a HC-Y53E (antibody, name in Kabat numbering, V domains shown)
VH: QVQLQESGPGLVKPSQTLSLTCTVSGYSITSDYNSHWIRQPPGKGLEWIGYIHESGSTNYNPSLKSRVTISRDTSKNQFSLKLSSVTAADTAVYYCARNYGSIYVNYFDYWGQGTLVTVSS
VL: EIVLTQSPATLSLSPGERATLSCSASSSVSYMYWYQQKPGQAPRPLIYRTSNLASGIPARFSGSGSGTDFTLTISSLEPEDFAVYYCQQYHSYPTFGGGTKVEIK
notes: IgG1 kappa
B14: SA301a HC-N100bP (antibody, name in Kabat numbering, V domains shown)
VH: QVQLQESGPGLVKPSQTLSLTCTVSGYSITSDYNSHWIRQPPGKGLEWIGYIHYSGSTNYNPSLKSRVTISRDTSKNQFSLKLSSVTAADTAVYYCARNYGSIYVPYFDYWGQGTLVTVSS
VL: EIVLTQSPATLSLSPGERATLSCSASSSVSYMYWYQQKPGQAPRPLIYRTSNLASGIPARFSGSGSGTDFTLTISSLEPEDFAVYYCQQYHSYPTFGGGTKVEIK
notes: IgG1 kappa
B15: SA301a HC-Y53T (antibody, name in Kabat numbering, V domains shown)
VH: QVQLQESGPGLVKPSQTLSLTCTVSGYSITSDYNSHWIRQPPGKGLEWIGYIHTSGSTNYNPSLKSRVTISRDTSKNQFSLKLSSVTAADTAVYYCARNYGSIYVNYFDYWGQGTLVTVSS
VL: EIVLTQSPATLSLSPGERATLSCSASSSVSYMYWYQQKPGQAPRPLIYRTSNLASGIPARFSGSGSGTDFTLTISSLEPEDFAVYYCQQYHSYPTFGGGTKVEIK
notes: IgG1 kappa
B16: SA301a HC-Y53M (antibody, name in Kabat numbering, V domains shown)
VH: QVQLQESGPGLVKPSQTLSLTCTVSGYSITSDYNSHWIRQPPGKGLEWIGYIHMSGSTNYNPSLKSRVTISRDTSKNQFSLKLSSVTAADTAVYYCARNYGSIYVNYFDYWGQGTLVTVSS
VL: EIVLTQSPATLSLSPGERATLSCSASSSVSYMYWYQQKPGQAPRPLIYRTSNLASGIPARFSGSGSGTDFTLTISSLEPEDFAVYYCQQYHSYPTFGGGTKVEIK
notes: IgG1 kappa
B17: SA301a HC-Y53P (antibody, name in Kabat numbering, V domains shown)
VH: QVQLQESGPGLVKPSQTLSLTCTVSGYSITSDYNSHWIRQPPGKGLEWIGYIHPSGSTNYNPSLKSRVTISRDTSKNQFSLKLSSVTAADTAVYYCARNYGSIYVNYFDYWGQGTLVTVSS
VL: EIVLTQSPATLSLSPGERATLSCSASSSVSYMYWYQQKPGQAPRPLIYRTSNLASGIPARFSGSGSGTDFTLTISSLEPEDFAVYYCQQYHSYPTFGGGTKVEIK
notes: IgG1 kappa
B18: SA301a HC-Y53Q (antibody, name in Kabat numbering, V domains shown)
VH: QVQLQESGPGLVKPSQTLSLTCTVSGYSITSDYNSHWIRQPPGKGLEWIGYIHQSGSTNYNPSLKSRVTISRDTSKNQFSLKLSSVTAADTAVYYCARNYGSIYVNYFDYWGQGTLVTVSS
VL: EIVLTQSPATLSLSPGERATLSCSASSSVSYMYWYQQKPGQAPRPLIYRTSNLASGIPARFSGSGSGTDFTLTISSLEPEDFAVYYCQQYHSYPTFGGGTKVEIK
notes: IgG1 kappa
B19: SA301a HC-Y53R (antibody, name in Kabat numbering, V domains shown)
VH: QVQLQESGPGLVKPSQTLSLTCTVSGYSITSDYNSHWIRQPPGKGLEWIGYIHRSGSTNYNPSLKSRVTISRDTSKNQFSLKLSSVTAADTAVYYCARNYGSIYVNYFDYWGQGTLVTVSS
VL: EIVLTQSPATLSLSPGERATLSCSASSSVSYMYWYQQKPGQAPRPLIYRTSNLASGIPARFSGSGSGTDFTLTISSLEPEDFAVYYCQQYHSYPTFGGGTKVEIK
notes: IgG1 kappa
B20: SA301a HC-Y53G (antibody, name in Kabat numbering, V domains shown)
VH: QVQLQESGPGLVKPSQTLSLTCTVSGYSITSDYNSHWIRQPPGKGLEWIGYIHGSGSTNYNPSLKSRVTISRDTSKNQFSLKLSSVTAADTAVYYCARNYGSIYVNYFDYWGQGTLVTVSS
VL: EIVLTQSPATLSLSPGERATLSCSASSSVSYMYWYQQKPGQAPRPLIYRTSNLASGIPARFSGSGSGTDFTLTISSLEPEDFAVYYCQQYHSYPTFGGGTKVEIK
notes: IgG1 kappa

What was measured:
[1] = molecular target: T1, human IL-18BP (interleukin-18 binding protein, isoform A) (human, UniProt O95998 31-194); assay: cell-based or functional assay
T1 sequence: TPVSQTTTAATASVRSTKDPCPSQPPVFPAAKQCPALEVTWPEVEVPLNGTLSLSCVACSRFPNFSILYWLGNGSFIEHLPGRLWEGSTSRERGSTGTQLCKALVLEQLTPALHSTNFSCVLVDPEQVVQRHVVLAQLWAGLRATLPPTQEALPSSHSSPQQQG

cynomolgus IL-18BP = molecular target: T2, cynomolgus IL-18BP (cynomolgus monkey); assay: BLI, apparent KD
T2 construct: also called cyno IL-18BP; cyIL-18BP
T2 chain: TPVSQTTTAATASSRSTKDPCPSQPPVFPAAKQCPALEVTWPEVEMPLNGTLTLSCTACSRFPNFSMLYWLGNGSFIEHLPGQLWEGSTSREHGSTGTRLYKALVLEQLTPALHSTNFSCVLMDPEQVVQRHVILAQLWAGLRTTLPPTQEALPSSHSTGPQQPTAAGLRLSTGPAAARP

human IL-18BP = molecular target: T3, human IL-18BP (human, UniProt O95998 31-194); assay: BLI, apparent KD
T3 construct: UniProt printed as 095998; also called hIL-18BP
T3 sequence: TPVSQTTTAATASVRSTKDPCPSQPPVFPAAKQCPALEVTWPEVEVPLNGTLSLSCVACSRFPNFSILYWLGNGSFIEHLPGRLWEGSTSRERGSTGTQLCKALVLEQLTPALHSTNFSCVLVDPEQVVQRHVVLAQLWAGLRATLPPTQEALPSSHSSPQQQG

Binder	Kd (human IL-18BP) [nM]	other results
B1		EC50 in PBMC Assay 1 (endogenous IL-18BP), IFNγ [1]: 3.1 nM; EC50 in PBMC Assay 2 (precomplexed IL-18BP), IFNγ [1]: 3 nM
B2		EC50 in PBMC Assay 1 (endogenous IL-18BP), IFNγ [1]: 4.4 nM; EC50 in PBMC Assay 2 (precomplexed IL-18BP), IFNγ [1]: 0.79 nM
B3		EC50 in PBMC Assay 1 (endogenous IL-18BP), IFNγ [1]: 127 nM; EC50 in PBMC Assay 2 (precomplexed IL-18BP), IFNγ [1]: 19.7 nM
B4		EC50 in PBMC Assay 1 (endogenous IL-18BP), IFNγ [1]: 7.9 nM; EC50 in PBMC Assay 2 (precomplexed IL-18BP), IFNγ [1]: 2.2 nM
B5		Kd (cynomolgus IL-18BP): 1.83 nM
B6	2.64	
B7	0.39	
B8	2.42	
B9	2.16	
B10	2.41	
B11	3.16	
B12	1.87	
B13	5.06	
B14		Kd (cynomolgus IL-18BP): 0.11 nM
B15	1.95	
B16	0.4	
B17	0.38	
B18	1.81	
B19	7.08	
B20	1.86	
